Assay results as given in paper PMC10397247.

How the values were obtained:
4H2760-AA = biological target: T1, 4H2760-AA; experiment: two-hybrid library CCmax;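 note: natural log of median RNA to DNA barcode read ratio; higher means stronger binding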
T1 chain: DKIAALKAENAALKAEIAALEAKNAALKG

4H2774-AA = biological target: T2, 4H2774-AA; experiment: two-hybrid library CCmax; details: mean of both orientations;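 note: natural log of median RNA to DNA barcode read ratio; higher means stronger binding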
T2 chain: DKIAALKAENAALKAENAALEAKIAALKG

4H2903-AA = biological target: T3, 4H2903-AA; experiment: two-hybrid library CCmax; details: mean of both orientations;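 note: natural log of median RNA to DNA barcode read ratio; higher means stronger binding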
T3 chain: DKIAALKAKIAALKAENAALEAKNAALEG

4H2947-AA = biological target: T4, 4H2947-AA; experiment: two-hybrid library CCmax; details: mean of both orientations;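 note: natural log of median RNA to DNA barcode read ratio; higher means stronger binding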
T4 chain: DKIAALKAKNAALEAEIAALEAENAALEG

4H2961-AA = biological target: T5, 4H2961-AA; experiment: two-hybrid library CCmax; details: mean of both orientations;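 note: natural log of median RNA to DNA barcode read ratio; higher means stronger binding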
T5 chain: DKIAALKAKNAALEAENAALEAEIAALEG

4H3049-AA = biological target: T6, 4H3049-AA; experiment: two-hybrid library CCmax; details: mean of both orientations;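 note: natural log of median RNA to DNA barcode read ratio; higher means stronger binding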
T6 chain: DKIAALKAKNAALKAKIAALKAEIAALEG

4H3094-AA = biological target: T7, 4H3094-AA; experiment: two-hybrid library CCmax; details: mean of both orientations
T7 chain: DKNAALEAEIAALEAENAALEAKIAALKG

4H324-AA = biological target: T8, 4H324-AA; experiment: two-hybrid library CCmax; details: mean of both orientations
T8 chain: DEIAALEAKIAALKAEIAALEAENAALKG

4H341-AA = biological target: T9, 4H341-AA; experiment: two-hybrid library CCmax; details: mean of both orientations
T9 chain: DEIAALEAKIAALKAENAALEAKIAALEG

4H3449-AA = biological target: T10, 4H3449-AA; experiment: two-hybrid library CCmax; details: mean of both orientations
T10 chain: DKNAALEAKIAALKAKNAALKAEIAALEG

4H3619-AA = biological target: T11, 4H3619-AA; experiment: two-hybrid library CCmax; details: mean of both orientations
T11 chain: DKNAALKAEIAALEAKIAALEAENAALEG

4H3629-AA = biological target: T12, 4H3629-AA; experiment: two-hybrid library CCmax; details: mean of both orientations
T12 chain: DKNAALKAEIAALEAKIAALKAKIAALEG

4H3777-AA = biological target: T13, 4H3777-AA; experiment: two-hybrid library CCmax; details: mean of both orientations
T13 chain: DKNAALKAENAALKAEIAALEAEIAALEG

4H380-AA = biological target: T14, 4H380-AA; experiment: two-hybrid library CCmax; details: mean of both orientations
T14 chain: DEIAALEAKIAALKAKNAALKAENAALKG

4H3915-AA = biological target: T15, 4H3915-AA; experiment: two-hybrid library CCmax; details: mean of both orientations
T15 chain: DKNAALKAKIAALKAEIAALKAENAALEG

4H3974-AA = biological target: T16, 4H3974-AA; experiment: two-hybrid library CCmax; details: mean of both orientations
T16 chain: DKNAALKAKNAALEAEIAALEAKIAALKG

4H432-AA = biological target: T17, 4H432-AA; experiment: two-hybrid library CCmax; details: mean of both orientations
T17 chain: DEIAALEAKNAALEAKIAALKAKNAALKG

4H446-AA = biological target: T18, 4H446-AA; experiment: two-hybrid library CCmax; details: mean of both orientations
T18 chain: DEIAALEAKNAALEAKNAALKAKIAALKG

4H63-AA = biological target: T19, 4H63-AA; experiment: two-hybrid library CCmax; details: mean of both orientations
T19 chain: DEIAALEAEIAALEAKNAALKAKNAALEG

4H370-bN = biological target: T20, 4H370-bN; experiment: two-hybrid library CCNG1
T20 chain: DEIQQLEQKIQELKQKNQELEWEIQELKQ

4H3782-bN = biological target: T21, 4H3782-bN; experiment: two-hybrid library CCNG1
T21 chain: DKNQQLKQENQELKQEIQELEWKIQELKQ

4H3843-bN = biological target: T22, 4H3843-bN; experiment: two-hybrid library CCNG1
T22 chain: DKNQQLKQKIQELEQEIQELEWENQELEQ

4H4001-bN = biological target: T23, 4H4001-bN; experiment: two-hybrid library CCNG1
T23 chain: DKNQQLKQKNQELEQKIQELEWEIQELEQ

4H462-bN = biological target: T24, 4H462-bN; experiment: two-hybrid library CCNG1
T24 chain: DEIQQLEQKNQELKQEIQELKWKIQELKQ

4H568-bN = biological target: T25, 4H568-bN; experiment: two-hybrid library CCNG1
T25 chain: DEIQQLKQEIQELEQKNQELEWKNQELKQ

4H607-bN = biological target: T26, 4H607-bN; experiment: two-hybrid library CCNG1
T26 chain: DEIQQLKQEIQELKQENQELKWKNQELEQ

4H687-bN = biological target: T27, 4H687-bN; experiment: two-hybrid library CCNG1
T27 chain: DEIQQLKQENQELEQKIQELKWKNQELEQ

4H72-bN = biological target: T28, 4H72-bN; experiment: two-hybrid library CCNG1
T28 chain: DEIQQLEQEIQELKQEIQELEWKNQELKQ

4H797-bN = biological target: T29, 4H797-bN; experiment: two-hybrid library CCNG1
T29 chain: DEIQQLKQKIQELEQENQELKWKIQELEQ

4H883-bN = biological target: T30, 4H883-bN; experiment: two-hybrid library CCNG1
T30 chain: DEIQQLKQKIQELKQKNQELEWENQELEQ

4H918-bN = biological target: T31, 4H918-bN; experiment: two-hybrid library CCNG1
T31 chain: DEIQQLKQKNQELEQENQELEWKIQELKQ

4H953-bN = biological target: T32, 4H953-bN; experiment: two-hybrid library CCNG1
T32 chain: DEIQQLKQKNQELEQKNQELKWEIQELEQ

4H967-bN = biological target: T33, 4H967-bN; experiment: two-hybrid library CCNG1
T33 chain: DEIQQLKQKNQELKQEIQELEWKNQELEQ

4H3817-bN = biological target: T34, 4H3817-bN; experiment: two-hybrid library CCNG1
T34 chain: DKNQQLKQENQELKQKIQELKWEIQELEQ

4H3858-bN = biological target: T35, 4H3858-bN; experiment: two-hybrid library CCNG1
T35 chain: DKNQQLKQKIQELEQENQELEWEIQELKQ

4H3974-bN = biological target: T36, 4H3974-bN; experiment: two-hybrid library CCNG1
T36 chain: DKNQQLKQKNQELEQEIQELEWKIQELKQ

4H570-bN = biological target: T37, 4H570-bN; experiment: two-hybrid library CCNG1
T37 chain: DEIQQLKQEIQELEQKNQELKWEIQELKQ

4H584-bN = biological target: T38, 4H584-bN; experiment: two-hybrid library CCNG1
T38 chain: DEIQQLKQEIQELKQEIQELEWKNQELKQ

4H619-bN = biological target: T39, 4H619-bN; experiment: two-hybrid library CCNG1
T39 chain: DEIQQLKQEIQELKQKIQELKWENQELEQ

4H850-bN = biological target: T40, 4H850-bN; experiment: two-hybrid library CCNG1
T40 chain: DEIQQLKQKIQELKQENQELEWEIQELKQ

4H906-bN = biological target: T41, 4H906-bN; experiment: two-hybrid library CCNG1
T41 chain: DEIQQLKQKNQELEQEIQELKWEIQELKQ

4H338-bN = biological target: T42, 4H338-bN; experiment: two-hybrid library CCNG1
T42 chain: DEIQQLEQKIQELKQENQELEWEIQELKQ

4H3427-bN = biological target: T43, 4H3427-bN; experiment: two-hybrid library CCNG1
T43 chain: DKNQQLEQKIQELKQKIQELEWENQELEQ

4H3855-bN = biological target: T44, 4H3855-bN; experiment: two-hybrid library CCNG1
T44 chain: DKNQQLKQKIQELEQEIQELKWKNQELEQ

4H454-bN = biological target: T45, 4H454-bN; experiment: two-hybrid library CCNG1
T45 chain: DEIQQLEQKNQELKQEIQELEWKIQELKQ

4H717-bN = biological target: T46, 4H717-bN; experiment: two-hybrid library CCNG1
T46 chain: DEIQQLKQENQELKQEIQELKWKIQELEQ

4H754-bN = biological target: T47, 4H754-bN; experiment: two-hybrid library CCNG1
T47 chain: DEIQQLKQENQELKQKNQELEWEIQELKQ

4H908-bN = biological target: T48, 4H908-bN; experiment: two-hybrid library CCNG1
T48 chain: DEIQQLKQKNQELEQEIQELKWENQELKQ

DKIAALKAENAALKAEIAALEAKNAALKG [4H2760-AA] showed an interaction score (4H2760-AA) of 0.876, an interaction score (4H2774-AA) of -1.29 and an interaction score (4H2903-AA) of -1.32. For the same binder, the interaction score (4H2947-AA) was 0.202, the interaction score (4H2961-AA) was -1.97 and the interaction score (4H3049-AA) was 1.62. The interaction score (4H3094-AA) was 2.17, the interaction score (4H324-AA) was -1.09 and the interaction score (4H341-AA) was -0.788. For the same binder, the interaction score (4H3449-AA) was -1.27, the interaction score (4H3619-AA) was -1.77 and the interaction score (4H3629-AA) was -1.14. For the same binder, the interaction score (4H3777-AA) was -0.779, the interaction score (4H380-AA) was -1.48 and the interaction score (4H3915-AA) was -1.44. The interaction score (4H3974-AA) was -1.69, the interaction score (4H432-AA) was -0.454 and the interaction score (4H446-AA) was -1.49. The interaction score (4H63-AA) was -1.64.

Binder DEIQQLEQKIQELKQKNQELEWEIQELKQ [4H370-bN] has an interaction score (4H370-bN) of 0.966, an interaction score (4H3782-bN) of -0.329 and an interaction score (4H3843-bN) of -0.715. The interaction score (4H4001-bN) was -0.655, the interaction score (4H462-bN) was -1.49 and the interaction score (4H568-bN) was 0.649. For the same binder, the interaction score (4H607-bN) was -0.679, the interaction score (4H687-bN) was -1.17 and the interaction score (4H72-bN) was -0.189. The interaction score (4H797-bN) was -0.598, the interaction score (4H883-bN) was -1.39 and the interaction score (4H918-bN) was -0.831. The interaction score (4H953-bN) was -1.96 and the interaction score (4H967-bN) was -0.814.

With DKNQQLKQENQELKQKIQELKWEIQELEQ [4H3817-bN] the interaction score (4H3817-bN) was -0.754, the interaction score (4H3858-bN) was -0.555 and the interaction score (4H3974-bN) was -0.487. The interaction score (4H570-bN) was -1.92, the interaction score (4H584-bN) was -2.15 and the interaction score (4H619-bN) was -0.743. For the same binder, the interaction score (4H850-bN) was -0.947 and the interaction score (4H906-bN) was -1.83.

For DEIQQLEQKIQELKQENQELEWEIQELKQ [4H338-bN], the interaction score (4H338-bN) was -1.01, the interaction score (4H3427-bN) was -0.828 and the interaction score (4H3782-bN) was -0.966. The interaction score (4H3855-bN) was -0.12, the interaction score (4H4001-bN) was -0.385 and the interaction score (4H454-bN) was -0.967. The interaction score (4H568-bN) was 0.409, the interaction score (4H607-bN) was -1.19 and the interaction score (4H687-bN) was 0.0368. The interaction score (4H717-bN) was -1.16, the interaction score (4H72-bN) was -0.606 and the interaction score (4H754-bN) was -0.701. The interaction score (4H797-bN) was -1.45, the interaction score (4H883-bN) was -1.26 and the interaction score (4H908-bN) was -0.434. The interaction score (4H918-bN) was -0.295, the interaction score (4H953-bN) was -1.33 and the interaction score (4H967-bN) was 0.117.
